Legend:
[1] = target: T1, human Claudin18.2 (human, UniProt P56856-2 1-261); test: cell-based or functional assay
[2] = target: T1, human Claudin18.2; test: cell-based or functional assay; remark: listed apart in the source
[3] = target: T1, human Claudin18.2; test: flow cytometry on HEK293T-Claudin 18.2 cells
Experimental: HEK293T-Claudin 18.2 cells were detached and centrifuged, followed by washing for twice with PBS. And then the cells were resuspended in PBS containing 1% BSA and were plated into 96-well tip bottom plate at 300000 cells per well in a volume of 50 μl for 20 wells in total. […] Human IgG was served as negative control. The reactions were mixed well and incubated for 1 h at 4° C. in the dark. Following by three times of washing with PBS, the FITC-labelled anti-human Fc secondary antibody (Biolegend, 409322) was added and incubated for 0.5h in the dark. Detection was performed by flow cytometry (Beckman, Cytoflex) after washing for three times with PBS.

[4] = target: T1, human Claudin18.2; test: cellular ELISA on fixed L929-Claudin 18.2 cells
Experimental: Human Claudin18.2 is a four transmembrane protein and has a complex structure. Cellular ELISA was thus carried out to maintain the structure of Claudin18.2. […] The cells were resuspended and adjusted to 2×10⁵/mL and 100 μL of the resuspension was plated into 96 well plate and incubated overnight at 37° C. The next day, the media was removed, and the plate was washed with PBS once. 100 μL/well 4% formaldehyde was added to the plate. After 30 min of incubation at room temperature, formaldehyde was removed, followed by washing twice with PBS. Blocking buffer (PBS containing 2% BSA) was then added to the plate at 100 μL/well, and incubated at 37° C. for 2 h. After removal of blocking buffer, 100 μL/well of serially diluted antibodies (starting from 1 μM, with 4-fold dilution, for a total of 11 concentrations) were added to the corresponding wells, which were incubated at 37° C. for 2h afterwards. The plate was washed with 250 μL PBST for 5 times, and was allowed to stand for 2 min each time. […] The plate was incubated at 37° C. for 1 h and washed with 250 μL PBST 6 times, wherein the plate was allowed to stand for 2 min each time. 100 μL/well of TMB solution (Thermo, 34029) was added. […] The absorbance at 450 nm was read on a plate reader (MD, SpectraMax M2) and the results were subjected to curve fitting by Graphpad Prism.

[5] = target: T1, human Claudin18.2; test: cellular ELISA on fixed L929-Claudin 18.2 cells; remark: listed apart in the source
Experimental: Human Claudin18.2 is a four transmembrane protein and has a complex structure. Cellular ELISA was thus carried out to maintain the structure of Claudin18.2. […] The cells were resuspended and adjusted to 2×10⁵/mL and 100 μL of the resuspension was plated into 96 well plate and incubated overnight at 37° C. The next day, the media was removed, and the plate was washed with PBS once. 100 μL/well 4% formaldehyde was added to the plate. After 30 min of incubation at room temperature, formaldehyde was removed, followed by washing twice with PBS. Blocking buffer (PBS containing 2% BSA) was then added to the plate at 100 μL/well, and incubated at 37° C. for 2 h. After removal of blocking buffer, 100 μL/well of serially diluted antibodies (starting from 1 μM, with 4-fold dilution, for a total of 11 concentrations) were added to the corresponding wells, which were incubated at 37° C. for 2h afterwards. The plate was washed with 250 μL PBST for 5 times, and was allowed to stand for 2 min each time. […] The plate was incubated at 37° C. for 1 h and washed with 250 μL PBST 6 times, wherein the plate was allowed to stand for 2 min each time. 100 μL/well of TMB solution (Thermo, 34029) was added. The reactions were incubated at 37° C. for 20 min and stopped with 50 μL 2 mol/L H₂SO₄. The absorbance at 450 nm was read on a plate reader (MD, SpectraMax M2) and the results were subjected to curve fitting by Graphpad Prism.

[6] = target: T2, human Claudin18.1 (human, UniProt P56856 1-261); test: flow cytometry, HEK293T-human Claudin 18.1 cells compared with HEK293T cells
T2 construct: whole, on cells; Presented on transfected cells; also called CLDN18.1
Experimental: The specificity of candidate antibodies was detected by FACS. […] After washing twice with PBS, the cells were resuspended with PBS containing 1% BSA. 300,000 cells for each cell line were added with the candidate antibodies at a final concentration of 1000 nM, mixed well, and incubated for 1 h at 4° C., protected from light. Then the cells were washed for three times with PBS and FITC-labeled anti-human Fc secondary antibody (BioLegend, 409322) was added, followed by 0.5h of incubation at 4° C. in the dark. Detection was performed by flow cytometry (Beckman, Cytoflex) after washing with PBS for three times.

CDC EC50 on HEK293T-Claudin 18.2 cells (guinea pig serum, CellTiter-Glo) [1] | ADCC EC50 on HEK293T-Claudin 18.2 cells (NK92MI-CD16a, LDH) [2] | EC50 [3] | EC50 [4] | EC50 [5] | Max Signal Value (OD450) [5] | binding result [6] | Binder
1.36 µg/mL | 0.0677 µg/mL | 5.77 nM | 0.12 nM | 0.18 nM | 0.8 OD450 | no binding (tested: 1000 nM) | humanized antibody 2C6.9-hz21 (antibody, human IgG1, kappa, V domains shown, human IgG1 / kappa; also called 2C6.9.2hz21) VH: QVQLQESGPGLVKPSETLSLTCTVSGFSLTRYGVSWIRQPPGKGLEWIGVIWGEGNTNYNPSLKSRVTISKDSSKSQVSLKLSSVTAADTAVYYCARVNFGNALDYWGQGTLVTVSS VL: DIVMTQSPDSLAVSLGERATINCKSSQSLLNSGNQKNYLTWYQQKPGQPPKLLIYWASTRDSGVPDRFSGSGSGTDFTLTISSLQAEDVAVYYCQNDFIFPLTFGGGTKVEIKR
 |  |  |  | 0.16 nM | 0.8 OD450 |  | humanized antibody 2C6.9-hz11 (antibody, human IgG1, kappa, V domains shown, Human IgG1 / kappa constant regions; also called 2C6.9.2hz11) VH: QVQLQESGPGLVKPSETLSLTCTVSGFSLTRYGVSWIRQPPGKGLEWIGVIWGDGNTNYNPSLKSRVTISKDSSKSQVSLKLSSVTAADTAVYYCARVNFGNALDYWGQGTLVTVSS VL: DIVMTQSPDSLAVSLGERATINCKSSQSLLNSGNQKNYLTWYQQKPGQPPKLLIYWASTRDSGVPDRFSGSGSGTDFTLTISSLQAEDVAVYYCQNDFIFPLTFGGGTKVEIKR

— patent US20250340630A1 (SICHUAN KELUN BIOTECH BIOPHARMACEUTICAL, published 2025)
